# Reference: publication PMC3592467
# Target: CDC5L–GFP (UniProt Q99459)
# Assay: affinity purification with mass spectrometry
# CDC5L–GFP, sequence (Q99459 whole entry): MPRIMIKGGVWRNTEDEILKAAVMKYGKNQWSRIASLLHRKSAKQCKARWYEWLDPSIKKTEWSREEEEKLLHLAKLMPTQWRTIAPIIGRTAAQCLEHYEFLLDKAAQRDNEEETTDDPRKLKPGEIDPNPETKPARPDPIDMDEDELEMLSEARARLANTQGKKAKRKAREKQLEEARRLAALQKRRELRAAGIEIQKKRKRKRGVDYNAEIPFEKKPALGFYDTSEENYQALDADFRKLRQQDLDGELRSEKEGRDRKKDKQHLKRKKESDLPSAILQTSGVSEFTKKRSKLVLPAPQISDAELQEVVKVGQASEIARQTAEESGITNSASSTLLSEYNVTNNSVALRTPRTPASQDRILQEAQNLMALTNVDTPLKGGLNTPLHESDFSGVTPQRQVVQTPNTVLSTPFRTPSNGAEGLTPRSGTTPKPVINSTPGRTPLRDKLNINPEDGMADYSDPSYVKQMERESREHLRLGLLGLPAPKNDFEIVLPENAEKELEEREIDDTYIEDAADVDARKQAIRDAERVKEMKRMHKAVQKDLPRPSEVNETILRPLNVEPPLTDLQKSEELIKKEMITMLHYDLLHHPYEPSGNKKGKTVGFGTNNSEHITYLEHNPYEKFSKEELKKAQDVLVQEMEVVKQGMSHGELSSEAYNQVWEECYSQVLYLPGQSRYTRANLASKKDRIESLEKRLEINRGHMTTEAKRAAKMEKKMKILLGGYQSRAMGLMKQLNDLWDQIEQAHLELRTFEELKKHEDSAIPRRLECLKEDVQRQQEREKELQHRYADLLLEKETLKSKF
# HSP70, sequence (P11142 whole entry): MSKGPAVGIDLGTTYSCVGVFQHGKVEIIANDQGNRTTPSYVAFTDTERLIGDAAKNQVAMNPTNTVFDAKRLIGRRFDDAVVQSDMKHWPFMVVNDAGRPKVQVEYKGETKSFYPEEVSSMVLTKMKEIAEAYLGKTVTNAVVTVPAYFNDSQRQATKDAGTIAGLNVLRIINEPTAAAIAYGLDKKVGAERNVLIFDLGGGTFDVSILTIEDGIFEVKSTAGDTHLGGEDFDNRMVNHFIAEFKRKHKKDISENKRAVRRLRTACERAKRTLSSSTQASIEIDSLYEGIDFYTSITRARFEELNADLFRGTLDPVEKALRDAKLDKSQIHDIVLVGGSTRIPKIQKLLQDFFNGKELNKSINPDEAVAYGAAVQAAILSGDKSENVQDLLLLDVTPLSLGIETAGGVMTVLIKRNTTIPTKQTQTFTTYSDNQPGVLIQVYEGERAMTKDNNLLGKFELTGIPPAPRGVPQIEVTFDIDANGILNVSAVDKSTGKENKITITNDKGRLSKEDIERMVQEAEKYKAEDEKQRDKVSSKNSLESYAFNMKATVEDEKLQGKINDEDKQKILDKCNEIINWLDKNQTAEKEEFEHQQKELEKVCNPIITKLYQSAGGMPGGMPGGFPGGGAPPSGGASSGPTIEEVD
substance,measurement,value
HSP70 (from UniProt P11142 1-646) (natural protein),stoichiometry N (relative to CDC5L),0.2
same,stoichiometry with CDC5L as a dimer (CDC5L 2) (per CDC5L dimer),0.4
